Test results: article PMC9033776, “Chromatin profiling in human neurons reveals aberrant roles for histone acetylation and BET family proteins in schizophrenia” (Nature Communications, 2022)
Where no end group is shown, it is not given here.

Biological target: T1, Bromo1-linker(GGS)5-Bromo2 of BRD4 (UniProt O60885 54-168; O60885 351-457)
T1 construct: BRD4 bromo1; (GGS)5 linker that replaces the stretch between the two bromodomains; BRD4 bromo2; the limits of the two domains in the fusion are not restated; also called Bromo1-linker-Bromo2 of BRD4; source: E. coli, purified using the same procedure as the single bromodomains
Assay: ITC; 3 mM H2A.Z peptides titrated into 0.3 mM bromodomains; 25 °C; 20 mM Hepes-Na pH 7.5, 100 mM NaCl; One Set of Binding Sites model
Conditions: both partners purified

## AGGK(Ac)AGK(Ac)DSGK(Ac)AKTKC (also: cross-linked via C-terminal cysteine) [H2A.ZK4ac7ac11ac peptides cross-linked by a C-terminal cysteine]
  fold stronger binding than Bromo1 of BRD4: 6.49 fold
  fold stronger binding than Bromo2 of BRD4: 1.7 fold
